Assay results published in IntAct's records for PubMed 23007647.

B1: Krev interaction trapped protein 1 (Homo sapiens), O00522 (parent)
chain: MGNPENIEDAYVAVIRPKNTASLNSREYRAKSYEILLHEVPIEGQKKKRKKVLLETKLQGNSEITQGILDYVVETTKPISPANQGIRGKRVVLMKKFPLDGEKMGREASLFIVPSVVKDNTKYTYTPGCPIFYCLQDIMRVCSESSTHFATLTARMLIALDKWLDERHAQSHFIPALFRPSPLERIKTNVINPAYATESGQTENSLHMGYSALEIKSKMLALEKADTCIYNPLFGSDLQYTNRVDKVVINPYFGLGAPDYSKIQIPKQEKWQRSMSSVTEDKERQWVDDFPLHRSACEGDSELLSRLLSERFSVNQLDSDHWAPIHYACWYGKVEATRILLEKGKCNPNLLNGQLSSPLHFAAGGGHAEIVQILLNHPETDRHITDQQGRSPLNICEENKQNNWEEAAKLLKEAINKPYEKVRIYRMDGSYRSVELKHGNNTTVQQIMEGMRLSQETQQYFTIWICSENLSLQLKPYHKPLQHVRDWPEILAELTNLDPQRETPQLFLRRDVRLPLEVEKQIEDPLAILILFDEARYNLLKGFYTAPDAKLITLASLLLQIVYGNYESKKHKQGFLNEENLKSIVPVTKLKSKAPHWTNRILHEYKNLSTSEGVSKEMHHLQRMFLQNCWEIPTYGAAFFTGQIFTKASPSNHKVIPVYVGVNIKGLHLLNMETKALLISLKYGCFMWQLGDTDTCFQIHSMENKMSFIVHTKQAGLVVKLLMKLNGQLMPTERNS
B2: Protein HEG homolog 1 (Homo sapiens), Q9ULI3 (parent)
chain: MASPRASRWPPPLLLLLLPLLLLPPAAPGTRDPPPSPARRALSLAPLAGAGLELQLERRPEREPPPTPPRERRGPATPGPSYRAPEPGAATQRGPSGRAPRGGSADAAWKHWPESNTEAHVENITFYQNQEDFSTVSSKEGVMVQTSGKSHAASDAPENLTLLAETADARGRSGSSSRTNFTILPVGYSLEIATALTSQSGNLASESLHLPSSSSEFDERIAAFQTKSGTASEMGTERAMGLSEEWTVHSQEATTSAWSPSFLPALEMGELTTPSRKRNSSGPDLSWLHFYRTAASSPLLDLSSSSESTEKLNNSTGLQSSSVSQTKTMHVATVFTDGGPRTLRSLTVSLGPVSKTEGFPKDSRIATTSSSVLLSPSAVESRRNSRVTGNPGDEEFIEPSTENEFGLTSLRWQNDSPTFGEHQLASSSEVQNGSPMSQTETVSRSVAPMRGGEITAHWLLTNSTTSADVTGSSASYPEGVNASVLTQFSDSTVQSGGSHTALGDRSYSESSSTSSSESLNSSAPRGERSIAGISYGQVRGTAIEQRTSSDHTDHTYLSSTFTKGERALLSITDNSSSSDIVESSTSYIKISNSSHSEYSSFFHAQTERSNISSYDGEYAQPSTESPVLHTSNLPSYTPTINMPNTSVVLDTDAEFVSDSSSSSSSSSSSSSSGPPLPLPSVSQSHHLFSSILPSTRASVHLLKSTSDASTPWSSSPSPLPVSLTTSTSAPLSVSQTTLPQSSSTPVLPRARETPVTSFQTSTMTSFMTMLHSSQTADLKSQSTPHQEKVITESKSPSLVSLPTESTKAVTTNSPLPPSLTESSTEQTLPATSTNLAQMSPTFTTTILKTSQPLMTTPGTLSSTASLVTGPIAVQTTAGKQLSLTHPEILVPQISTEGGISTERNRVIVDATTGLIPLTSVPTSAKEMTTKLGVTAEYSPASRSLGTSPSPQTTVVSTAEDLAPKSATFAVQSSTQSPTTVSSSASVNSCAVNPCLHNGECVADNTSRGYHCRCPPSWQGDDCSVDVNECLSNPCPSTAMCNNTQGSFICKCPVGYQLEKGICNLVRTFVTEFKLKRTFLNTTVEKHSDLQEVENEITKTLNMCFSALPSYIRSTVHASRESNAVVISLQTTFSLASNVTLFDLADRMQKCVNSCKSSAEVCQLLGSQRRIFRAGSLCKRKSPECDKDTSICTDLDGVALCQCKSGYFQFNKMDHSCRACEDGYRLENETCMSCPFGLGGLNCGNPYQLITVVIAAAGGGLLLILGIALIVTCCRKNKNDISKLIFKSGDFQMSPYAEYPKNPRSQEWGREAIEMHENGSTKNLLQMTDVYYSPTSVRNPELERNGLYPAYTGLPGSRHSCIFPGQYNPSFISDESRRRDYF

Legend:
[1] = variants of: B1; conditions: with heg1_human HEG1, Q9ULI3
[2] = variants of: B1; conditions: with ccm2_human CCM2, Q9BSQ5
Sequence of ccm2_human CCM2, Q9BSQ5 (Q9BSQ5 whole entry): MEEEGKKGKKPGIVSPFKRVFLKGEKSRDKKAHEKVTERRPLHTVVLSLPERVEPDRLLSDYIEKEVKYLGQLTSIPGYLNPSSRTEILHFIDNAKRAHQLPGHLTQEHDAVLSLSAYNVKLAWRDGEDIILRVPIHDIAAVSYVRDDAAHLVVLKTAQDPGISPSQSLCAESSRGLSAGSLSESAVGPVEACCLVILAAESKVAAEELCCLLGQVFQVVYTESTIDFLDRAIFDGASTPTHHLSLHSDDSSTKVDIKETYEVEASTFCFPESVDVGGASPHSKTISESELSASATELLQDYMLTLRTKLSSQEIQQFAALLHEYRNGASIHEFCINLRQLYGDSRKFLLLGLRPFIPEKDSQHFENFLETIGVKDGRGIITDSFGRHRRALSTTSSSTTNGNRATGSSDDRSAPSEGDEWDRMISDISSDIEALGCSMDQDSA

[3] = variants of: B1; conditions: with rap1a_mouse Rap1a
[4] = variants of: B2; conditions: with krit1_human KRIT1, O00522

L717A;L721A
effect of a mutation on the interaction [1]: decreasing interaction strength | effect of a mutation on the interaction [2]: with no effect | effect of a mutation on the interaction [3]: with no effect

R452E
effect of a mutation on the interaction [3]: disrupting interaction strength

N1367A;F1370A
effect of a mutation on the interaction [4]: with no effect
